# T1: His6-SAV576 (TetR family regulator) (Streptomyces avermitilis ATCC31267, UniProt Q82QD4 1-218)
# T1 sequence: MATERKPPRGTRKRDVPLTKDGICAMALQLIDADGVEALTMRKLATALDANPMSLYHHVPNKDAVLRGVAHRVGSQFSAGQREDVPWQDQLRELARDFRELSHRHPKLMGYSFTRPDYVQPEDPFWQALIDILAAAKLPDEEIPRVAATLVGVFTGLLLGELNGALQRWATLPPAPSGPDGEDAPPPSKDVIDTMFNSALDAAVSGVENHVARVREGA
# Target: T1, His6-SAV576 (TetR family regulator)
# Assay: EMSA; EMSA: Roche DIG Gel Shift Kit binding buffer (composition not stated), 0.3 nM probe, 1 µg poly[d(I-C)] in 20 µl, 25°C 30 min, 5% PAGE 0.5x TBE; footprinting: 400 ng DNA in 50 µl, 25°C 30 min, DNase I at 37°C
# Conditions: protein: recombinant; tags: His6 (pET-28a); chain copies: 2; label: 3' DIG; blunt
row,Binder,binding result
1,probe 6 (dsDNA) DNA 1: AGTCGCCATACGCTGTACGGTACCAGCGCCCGCGGCACTGCGG DNA 2: CCGCAGTGCCGCGGGCGCTGGTACCGTACAGCGTATGGCGACT,binds
2,probe 1m (dsDNA) DNA 1: TGAAGCGAATTCGAAGCTTGAAACGGGGCGCTGCCGTACCGGC DNA 2: GCCGGTACGGCAGCGCCCCGTTTCAAGCTTCGAATTCGCTTCA,no binding
3,probe 2 (dsDNA) DNA 1: CCCAGGTCTGCCGATTGAGTTTCCATACGTCGTATGGTACTAC DNA 2: GTAGTACCATACGACGTATGGAAACTCAATCGGCAGACCTGGG,binds
4,probe 6m (dsDNA) DNA 1: AGTCGCGAATTCCAAGCTTGTACCAGCGCCCGCGGCACTGCGG DNA 2: CCGCAGTGCCGCGGGCGCTGGTACAAGCTTGGAATTCGCGACT,no binding
5,probe 2m (dsDNA) DNA 1: CCCAGGTCTGCCGATTGAGTTTCGAATTCTAAGCTTGTACTAC DNA 2: GTAGTACAAGCTTAGAATTCGAAACTCAATCGGCAGACCTGGG,no binding

# Source: paper PMC3742746, “A Novel TetR Family Transcriptional Regulator, SAV576, Negatively Controls Avermectin Biosynthesis in Streptomyces avermitilis”
